Laboratory results published in doi:10.1101/2024.08.28.610080.

Key:
Assay in all cases: EMSA
[1] = target: POLγA Y951N (human, UniProt P54098 26-1239, Y951N)
[2] = target: POLγA WT (human, UniProt P54098 26-1239)
[3] = target: POLγA WT;POLγB (processivity subunit, B2) (human;human, UniProt P54098;Q9UHN1 26-1239;26-485, |)
[4] = target: POLγA Y951N;POLγB (processivity subunit, B2) (human;human, UniProt P54098;Q9UHN1 26-1239;26-485, Y951N|)

Measured: binding result

POLγA Y951N;POLγB (processivity subunit, B2), sequence (P54098 26-1239 Y951N, chain 1 of 2): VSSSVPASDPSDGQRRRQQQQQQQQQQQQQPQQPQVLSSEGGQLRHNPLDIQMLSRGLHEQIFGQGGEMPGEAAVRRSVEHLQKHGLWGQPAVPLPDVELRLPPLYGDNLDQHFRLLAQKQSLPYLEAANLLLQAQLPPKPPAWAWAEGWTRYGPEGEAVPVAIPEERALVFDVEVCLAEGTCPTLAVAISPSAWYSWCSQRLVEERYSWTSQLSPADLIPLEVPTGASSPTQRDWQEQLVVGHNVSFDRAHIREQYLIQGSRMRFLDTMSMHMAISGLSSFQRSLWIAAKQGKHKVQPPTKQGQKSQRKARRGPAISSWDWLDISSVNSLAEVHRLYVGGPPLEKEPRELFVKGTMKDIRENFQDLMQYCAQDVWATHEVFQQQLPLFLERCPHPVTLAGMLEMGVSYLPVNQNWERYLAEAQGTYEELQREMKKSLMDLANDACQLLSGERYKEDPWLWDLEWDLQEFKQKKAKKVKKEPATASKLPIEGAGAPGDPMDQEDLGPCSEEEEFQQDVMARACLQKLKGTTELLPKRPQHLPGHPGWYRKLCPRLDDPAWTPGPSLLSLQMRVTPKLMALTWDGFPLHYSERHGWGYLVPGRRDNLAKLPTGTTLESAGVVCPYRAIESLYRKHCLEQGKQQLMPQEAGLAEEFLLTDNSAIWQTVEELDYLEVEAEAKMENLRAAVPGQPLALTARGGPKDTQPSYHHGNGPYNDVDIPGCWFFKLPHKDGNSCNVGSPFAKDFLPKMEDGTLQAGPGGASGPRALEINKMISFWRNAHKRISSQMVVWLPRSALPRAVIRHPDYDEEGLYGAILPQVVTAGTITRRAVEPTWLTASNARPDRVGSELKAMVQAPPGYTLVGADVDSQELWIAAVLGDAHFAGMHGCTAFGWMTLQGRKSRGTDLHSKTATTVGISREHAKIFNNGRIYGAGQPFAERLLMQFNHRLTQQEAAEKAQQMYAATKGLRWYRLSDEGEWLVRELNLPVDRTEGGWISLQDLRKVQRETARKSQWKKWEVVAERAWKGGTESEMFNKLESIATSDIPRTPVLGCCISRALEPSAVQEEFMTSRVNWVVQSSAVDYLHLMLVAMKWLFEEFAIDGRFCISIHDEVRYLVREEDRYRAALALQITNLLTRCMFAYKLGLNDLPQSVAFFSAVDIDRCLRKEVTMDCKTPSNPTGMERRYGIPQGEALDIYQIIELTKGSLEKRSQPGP
POLγA Y951N;POLγB (processivity subunit, B2), sequence (Q9UHN1 26-485, chain 2 of 2): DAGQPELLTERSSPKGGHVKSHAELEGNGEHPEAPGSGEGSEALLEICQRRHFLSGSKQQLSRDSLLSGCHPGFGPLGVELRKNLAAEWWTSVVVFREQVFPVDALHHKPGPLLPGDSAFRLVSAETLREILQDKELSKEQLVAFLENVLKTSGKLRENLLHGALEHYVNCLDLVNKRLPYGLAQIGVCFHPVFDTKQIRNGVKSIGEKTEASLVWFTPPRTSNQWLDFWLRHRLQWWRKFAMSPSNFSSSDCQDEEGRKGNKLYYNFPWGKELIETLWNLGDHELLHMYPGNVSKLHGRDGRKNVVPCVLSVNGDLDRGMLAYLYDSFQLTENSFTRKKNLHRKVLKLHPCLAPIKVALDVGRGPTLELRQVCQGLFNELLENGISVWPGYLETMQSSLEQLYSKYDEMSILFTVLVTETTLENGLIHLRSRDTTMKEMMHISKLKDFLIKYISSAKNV
POLγA Y951N, sequence (P54098 26-1239 Y951N): as the sequence (P54098 26-1239 Y951N, chain 1 of 2) above
POLγA WT, sequence (P54098 26-1239): as the sequence (P54098 26-1239 Y951N, chain 1 of 2) above, with N926Y counted along it
POLγA WT;POLγB (processivity subunit, B2), sequence (P54098 26-1239, chain 1 of 2): as the sequence (P54098 26-1239 Y951N, chain 1 of 2) above, with N926Y counted along it
POLγA WT;POLγB (processivity subunit, B2), sequence (Q9UHN1 26-485, chain 2 of 2): as the sequence (Q9UHN1 26-485, chain 2 of 2) above

B1: 25/40 nt TET-ddC primer/template (EMSA) (dsDNA)
DNA 1: GCAGTGAATTTCTGCAGGTCGACTC
DNA 2: GCGGGTTGACCTTTGGAGTCGACCTGCAGAAATTCACTGC
modifications: 3'-ddC on both strands
binds: [1] | [2] | [3] | [4]
